Assay results as given in patent US7067277B1, “Chimeric G proteins and uses thereof” (H. Lundbeck A/S, priority 1999, dated 2006).
Changes are numbered by the printed parent chain.

How the values were obtained:
Test in all cases: Calcium mobilization (FLIPR, Fluo-3) in transfected COS-7 cells
Assay type in all cases: cell-based
h β2 adr = h β2 adr (Homo sapiens, UniProt P07550); details: h β2 adr + chimera in COS-7; agonist NE, max 100 μM
Summary of the method: (§1)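 Assay buffer was HBSS with 20 mM HEPES (pH 7.4), 0.1% BSA and 2.5 mM probenecid, and cells were loaded with 4 μM Fluo-3. Transfected COS-7 cells carried receptor and chimeric G protein cDNA at 1:1 or 8:1:1 ratios. Peak fluorescence change gave Hill-fitted curves.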

h α1A adr = molecular target: T1, h α1A adr (Homo sapiens, UniProt P35348); details: h α1A adr + chimera in COS-7; agonist NE, max 100 μM
T1 construct: expressed in transfected cells; host or cells: COS-7
T1 sequence (P35348 1-466): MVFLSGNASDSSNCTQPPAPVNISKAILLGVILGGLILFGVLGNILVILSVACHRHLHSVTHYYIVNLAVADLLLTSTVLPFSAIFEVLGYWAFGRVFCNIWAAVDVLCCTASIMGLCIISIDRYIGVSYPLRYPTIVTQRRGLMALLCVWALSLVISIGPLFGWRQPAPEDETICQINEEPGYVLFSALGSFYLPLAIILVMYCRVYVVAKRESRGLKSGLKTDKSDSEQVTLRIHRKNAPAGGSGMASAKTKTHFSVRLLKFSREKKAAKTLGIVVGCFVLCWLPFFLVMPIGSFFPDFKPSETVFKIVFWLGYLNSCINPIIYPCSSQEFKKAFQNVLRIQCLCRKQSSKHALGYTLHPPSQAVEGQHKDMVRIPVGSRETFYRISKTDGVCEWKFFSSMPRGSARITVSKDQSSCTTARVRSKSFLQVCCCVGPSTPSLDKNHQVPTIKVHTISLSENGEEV
Summary of the method: as §1

h 5HT1B = h 5HT1B (Homo sapiens, UniProt P28222); details: h 5HT1B + chimera in COS-7; agonist 5HT, max 100 μM
h 5HT1B, sequence (P28222 whole entry): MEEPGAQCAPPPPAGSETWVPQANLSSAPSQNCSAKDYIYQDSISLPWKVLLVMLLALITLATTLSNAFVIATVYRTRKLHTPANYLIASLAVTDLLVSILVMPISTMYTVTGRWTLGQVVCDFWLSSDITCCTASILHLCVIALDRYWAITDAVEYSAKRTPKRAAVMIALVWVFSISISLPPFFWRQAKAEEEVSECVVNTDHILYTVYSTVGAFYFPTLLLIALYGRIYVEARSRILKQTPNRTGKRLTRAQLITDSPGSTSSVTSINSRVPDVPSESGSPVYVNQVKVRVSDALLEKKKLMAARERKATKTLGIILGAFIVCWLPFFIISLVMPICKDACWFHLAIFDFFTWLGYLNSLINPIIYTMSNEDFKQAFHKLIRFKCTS
Summary of the method: as §1

h D2 = molecular target: T2, h D2 (Homo sapiens, UniProt P14416); details: h D2 + chimera in COS-7; agonist DA, max 100 μM
T2 construct: expressed in transfected cells; host or cells: COS-7
T2 sequence (P14416 whole entry): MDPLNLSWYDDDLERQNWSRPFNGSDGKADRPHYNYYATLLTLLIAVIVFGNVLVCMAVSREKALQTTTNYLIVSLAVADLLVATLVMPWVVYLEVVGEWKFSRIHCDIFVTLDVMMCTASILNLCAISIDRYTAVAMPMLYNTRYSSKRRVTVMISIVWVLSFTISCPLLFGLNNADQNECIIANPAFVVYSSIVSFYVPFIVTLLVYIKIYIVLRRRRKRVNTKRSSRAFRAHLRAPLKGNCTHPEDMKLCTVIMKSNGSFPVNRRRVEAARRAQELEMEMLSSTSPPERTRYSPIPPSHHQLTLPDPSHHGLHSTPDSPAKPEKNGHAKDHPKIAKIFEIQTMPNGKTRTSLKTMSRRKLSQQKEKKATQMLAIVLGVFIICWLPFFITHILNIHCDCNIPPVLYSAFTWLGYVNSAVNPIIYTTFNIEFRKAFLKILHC
Summary of the method: as §1

h α2C adr = molecular target: T3, h α2C adr (Homo sapiens, UniProt P18825); details: h α2C adr + chimera in COS-7; agonist NE, max 100 μM
T3 construct: expressed in transfected cells; host or cells: COS-7
T3 sequence (P18825 1-462): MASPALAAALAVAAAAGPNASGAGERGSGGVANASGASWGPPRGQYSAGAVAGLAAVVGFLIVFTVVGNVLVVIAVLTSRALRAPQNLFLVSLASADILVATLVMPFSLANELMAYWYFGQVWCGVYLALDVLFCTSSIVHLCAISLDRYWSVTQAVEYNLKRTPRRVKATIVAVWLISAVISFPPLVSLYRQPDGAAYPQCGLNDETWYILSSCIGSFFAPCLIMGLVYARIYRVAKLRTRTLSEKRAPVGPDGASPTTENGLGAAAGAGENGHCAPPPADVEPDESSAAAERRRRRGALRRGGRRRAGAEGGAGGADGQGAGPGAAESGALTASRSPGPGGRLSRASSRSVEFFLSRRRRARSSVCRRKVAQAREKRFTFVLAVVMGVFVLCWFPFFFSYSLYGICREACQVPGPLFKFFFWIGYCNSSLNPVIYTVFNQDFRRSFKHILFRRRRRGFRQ
Summary of the method: as §1

h α2A adr = molecular target: T4, h α2A adr (Homo sapiens, UniProt P08913); details: h α2A adr + chimera in COS-7; agonist NE, max 100 μM
T4 construct: expressed in transfected cells; host or cells: COS-7
T4 sequence (P08913 1-465): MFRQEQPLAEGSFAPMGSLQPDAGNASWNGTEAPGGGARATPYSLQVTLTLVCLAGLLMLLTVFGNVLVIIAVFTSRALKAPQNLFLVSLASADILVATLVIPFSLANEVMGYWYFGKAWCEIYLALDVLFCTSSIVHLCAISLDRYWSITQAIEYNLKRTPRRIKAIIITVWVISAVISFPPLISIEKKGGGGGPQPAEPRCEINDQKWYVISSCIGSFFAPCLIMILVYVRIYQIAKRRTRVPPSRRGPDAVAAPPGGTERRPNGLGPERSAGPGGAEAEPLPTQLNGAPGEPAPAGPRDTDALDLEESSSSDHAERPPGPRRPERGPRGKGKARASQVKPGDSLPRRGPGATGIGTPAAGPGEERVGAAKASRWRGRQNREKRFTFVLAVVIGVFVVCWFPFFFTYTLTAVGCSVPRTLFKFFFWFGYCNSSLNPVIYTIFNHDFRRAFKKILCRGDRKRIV
Summary of the method: as §1

h 5HT7 = h 5HT7 (Homo sapiens, UniProt P34969); details: h 5HT7 + chimera in COS-7; agonist 5HT, max 100 μM
h 5HT7, sequence (P34969 whole entry): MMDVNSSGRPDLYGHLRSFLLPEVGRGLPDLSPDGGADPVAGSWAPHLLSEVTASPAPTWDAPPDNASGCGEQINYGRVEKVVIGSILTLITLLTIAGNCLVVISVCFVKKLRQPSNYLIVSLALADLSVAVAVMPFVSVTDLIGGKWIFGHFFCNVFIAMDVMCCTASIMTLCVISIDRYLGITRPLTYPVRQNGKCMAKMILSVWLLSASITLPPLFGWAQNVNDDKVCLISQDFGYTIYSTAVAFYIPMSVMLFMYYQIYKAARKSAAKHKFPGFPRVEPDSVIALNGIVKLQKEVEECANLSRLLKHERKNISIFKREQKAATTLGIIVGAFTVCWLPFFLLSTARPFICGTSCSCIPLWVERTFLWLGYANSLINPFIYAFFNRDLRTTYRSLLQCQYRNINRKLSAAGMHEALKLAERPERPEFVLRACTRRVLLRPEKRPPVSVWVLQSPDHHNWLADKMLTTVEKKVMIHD
Summary of the method: as §1

B1: cGαq/z5: chimeric Gα subunit: C-terminal final 5 amino acids of C. elegans Gαq replaced with those of hGαz (SEQ ID NO: 1) (protein)
chain: MACCLSEEAREQKRINQEIEKQLQRDKRNARRELKLLLLGTGESGKSTFIKQMRIIHGQGYSEEDKRAHIRLVYQNVFMAIQSMIRAMDTLDIKFGNESEELQEKAAVVREVDFESVTSFEEPYVSYIKELWEDSGIQECYDRRREYQLTDSAKYYLSDLRRLAVPDYLPTEQDILRVRVPTTGIIEYPFDLEQIIFRMVDVGGQRSERRKWIHCFENVTSIMFLVALSEYDQVLVECDNENRMEESKALFRTIITYPWFTNSSVILFLNKKDLLEEKILYSHLADYFPEYDGPPRDPIAAREFILKMFVDLNPDADKIIYSHFTCATDTENIRFVFAAVKDTILQHNLKYIGLC
modifications: C. elegans
MAXIMAL SIGNAL (FLUORESCENCE UNITS) (h β2 adr): 1842 fluorescence units
MAXIMAL SIGNAL (FLUORESCENCE UNITS) (h α1A adr): 9816 fluorescence units
MAXIMAL SIGNAL (FLUORESCENCE UNITS) (h 5HT1B): 929 fluorescence units
MAXIMAL SIGNAL (FLUORESCENCE UNITS) (h D2): 7615 fluorescence units
MAXIMAL SIGNAL (FLUORESCENCE UNITS) (h α2C adr): 4143 fluorescence units
MAXIMAL SIGNAL (FLUORESCENCE UNITS) (h α2A adr): 7575 fluorescence units
MAXIMAL SIGNAL (FLUORESCENCE UNITS) (h 5HT7): 166 fluorescence units

B2: cGαq/z9: C. elegans Gαq with Gαz portion of the C-terminal tail extended to 9 amino acids (SEQ ID NO: 2) (protein)
chain: B1 chain with H347N
modifications: C. elegans
MAXIMAL SIGNAL (FLUORESCENCE UNITS) (h β2 adr): 1697 fluorescence units
MAXIMAL SIGNAL (FLUORESCENCE UNITS) (h α1A adr): 6597 fluorescence units
MAXIMAL SIGNAL (FLUORESCENCE UNITS) (h 5HT1B): 1217 fluorescence units
MAXIMAL SIGNAL (FLUORESCENCE UNITS) (h D2): 4305 fluorescence units
MAXIMAL SIGNAL (FLUORESCENCE UNITS) (h α2C adr): 3874 fluorescence units
MAXIMAL SIGNAL (FLUORESCENCE UNITS) (h α2A adr): 3040 fluorescence units
MAXIMAL SIGNAL (FLUORESCENCE UNITS) (h 5HT7): 129 fluorescence units
